target: HLA-A*02:01 (Homo sapiens, UniProt P04439, D140Y/D185E/D98H/E176V/E277Q/G131W/G231S/I119V/I121R/I166T/I218V/L300P/L318F/N151K/N90K/P208A/P217A/Q86G/Q94H/R138H/R169H/T345S); test: MHC binding assay: UV-ligand exchange with beta2m ELISA (peptide exchange yield); conditions: binding to HLA-A*02:01
From the text: Candidate peptides for T cell based therapies according to the present invention were further tested for their MHC binding capacity (affinity). The individual peptide-MHC complexes were produced by UV-ligand exchange, where a UV-sensitive peptide is cleaved upon UV-irradiation, and exchanged with the peptide of interest as analyzed. Only peptide candidates that can effectively bind and stabilize the peptide-receptive MHC molecules prevent dissociation of the MHC complexes. To determine the yield of the exchange reaction, an ELISA was performed based on the detection of the light chain ([…]) of stabilized MHC complexes. The assay was performed as generally described in Rodenko et al. (Rodenko et al., 2006).
96 well MAXISorp plates (NUNC) were coated over night with 2 ug/ml streptavidin in PBS at room temperature, washed 4× and blocked for 1 h at 37° C. in 2% BSA containing blocking buffer. […] Peptide-MHC monomers of the UV-exchange reaction were diluted 100 fold in blocking buffer. Samples were incubated for 1h at 37° C., washed four times, incubated with 2 ug/ml HRP conjugated anti-β2m for 1h at 37° C., washed again and detected with TMB solution that is stopped with […]. Absorption was measured at 450 nm. Candidate peptides that show a high exchange yield (preferably higher than 50%, most preferred higher than 75%) are generally preferred for a generation and production of antibodies or fragments thereof, and/or T cell receptors or fragments thereof, as they show sufficient avidity to the MHC molecules and prevent dissociation of the MHC complexes.

Substance	Peptide exchange (MHC class I binding score, peptide exchange yield)
131 (FVPPVTVFPSL; listed as Homo sapiens) [compound 131]	“++” (≥20% = ++)
132 (LLVEQPPLAGV; listed as Homo sapiens) [compound 132]	“+++” (≥50 = +++)
133 (KVLSNIHTV; listed as Homo sapiens) [compound 133]	“++” (≥20% = ++)
134 (YLQELIFSV; listed as Homo sapiens) [compound 134]	“+++” (≥50 = +++)
135 (ALSEVDFQL; listed as Homo sapiens) [compound 135]	“+++” (≥50 = +++)
136 (YLADPSNLFVV; listed as Homo sapiens) [compound 136]	“+++” (≥50 = +++)
137 (TLVLTLPTV; listed as Homo sapiens) [compound 137]	“++++” (≥75% = ++++)
138 (YQYPRAILSV; listed as Homo sapiens) [compound 138]	“+++” (≥50 = +++)
139 (SVMEVNSGIYRV; listed as Homo sapiens) [compound 139]	“+++” (≥50 = +++)
140 (YMDAPKAAL; listed as Homo sapiens) [compound 140]	“++” (≥20% = ++)
141 (YLDFSNNRL; listed as Homo sapiens) [compound 141]	“++” (≥20% = ++)
142 (FLFATPVFI; listed as Homo sapiens) [compound 142]	“+++” (≥50 = +++)
143 (LLLDITPEI; listed as Homo sapiens) [compound 143]	“++++” (≥75% = ++++)
144 (YIMEPSIFNTL; listed as Homo sapiens) [compound 144]	“+++” (≥50 = +++)
145 (FLATSGTLAGI; listed as Homo sapiens) [compound 145]	“++” (≥20% = ++)
146 (SLATAGDGLIEL; listed as Homo sapiens) [compound 146]	“++” (≥20% = ++)
147 (SLLEAVSFL; listed as Homo sapiens) [compound 147]	“+++” (≥50 = +++)
148 (ALNPEIVSV; listed as Homo sapiens) [compound 148]	“++” (≥20% = ++)
149 (NLLELFVQL; listed as Homo sapiens) [compound 149]	“+++” (≥50 = +++)
150 (RLWEEGEELEL; listed as Homo sapiens) [compound 150]	“+++” (≥50 = +++)
151 (KILQQLVTL; listed as Homo sapiens) [compound 151]	“+++” (≥50 = +++)

Substance	Peptide exchange (MHC class I binding score, peptide exchange yield)
152 (ILFEDIFDV; listed as Homo sapiens) [compound 152]	“+++” (≥50 = +++)
153 (FLIANVLYL; listed as Homo sapiens) [compound 153]	“+” (≥10% = +)
154 (ALDDGTPAL; listed as Homo sapiens) [compound 154]	“++” (≥20% = ++)
155 (RVANLHFPSV; listed as Homo sapiens) [compound 155]	“+++” (≥50 = +++)
157 (SLNDEVPEV; listed as Homo sapiens) [compound 157]	“++” (≥20% = ++)
158 (KLFDVDEDGYI; listed as Homo sapiens) [compound 158]	“+++” (≥50 = +++)
159 (GLVGNPLPSV; listed as Homo sapiens) [compound 159]	“++++” (≥75% = ++++)
160 (FLFDEEIEQI; listed as Homo sapiens) [compound 160]	“+++” (≥50 = +++)
161 (ALLEGVNTV; listed as Homo sapiens) [compound 161]	“+++” (≥50 = +++)
162 (YQQAQVPSV; listed as Homo sapiens) [compound 162]	“+++” (≥50 = +++)
163 (ALDEMGDLLQL; listed as Homo sapiens) [compound 163]	“+++” (≥50 = +++)
164 (ALLPQPKNLTV; listed as Homo sapiens) [compound 164]	“+++” (≥50 = +++)
165 (SLLDEIRAV; listed as Homo sapiens) [compound 165]	“+++” (≥50 = +++)
166 (YLNHLEPPV; listed as Homo sapiens) [compound 166]	“+++” (≥50 = +++)
167 (KVLEVTEEFGV; listed as Homo sapiens) [compound 167]	“+++” (≥50 = +++)
168 (KILDADIQL; listed as Homo sapiens) [compound 168]	“++++” (≥75% = ++++)
169 (NLPEYLPFV; listed as Homo sapiens) [compound 169]	“+++” (≥50 = +++)
170 (RLQETLSAA; listed as Homo sapiens) [compound 170]	“+++” (≥50 = +++)
171 (LLLPLQILL; listed as Homo sapiens) [compound 171]	“+++” (≥50 = +++)
172 (VLYSYTIITV; listed as Homo sapiens) [compound 172]	“++” (≥20% = ++)
173 (LLDSASAGLYL; listed as Homo sapiens) [compound 173]	“+++” (≥50 = +++)

Substance	Peptide exchange (MHC class I binding score, peptide exchange yield)
174 (ALAQYLITA; listed as Homo sapiens) [compound 174]	“+++” (≥50 = +++)
175 (YLFENISQL; listed as Homo sapiens) [compound 175]	“+++” (≥50 = +++)
176 (YLMEGSYNKVFL; listed as Homo sapiens) [compound 176]	“++” (≥20% = ++)
177 (YLLPEEYTSTL; listed as Homo sapiens) [compound 177]	“++++” (≥75% = ++++)
178 (ALTEIAFVV; listed as Homo sapiens) [compound 178]	“++++” (≥75% = ++++)
179 (KVLNELYTV; listed as Homo sapiens) [compound 179]	“+++” (≥50 = +++)
180 (FQIDPHSGLVTV; listed as Homo sapiens) [compound 180]	“++” (≥20% = ++)
181 (LLWAGTAFQV; listed as Homo sapiens) [compound 181]	“+++” (≥50 = +++)
182 (MLLEAPGIFL; listed as Homo sapiens) [compound 182]	“+++” (≥50 = +++)
183 (FGLDLVTEL; listed as Homo sapiens) [compound 183]	“+++” (≥50 = +++)
184 (YLMDINGKMWL; listed as Homo sapiens) [compound 184]	“+++” (≥50 = +++)
185 (FLIDDKGYTL; listed as Homo sapiens) [compound 185]	“++” (≥20% = ++)
186 (TLFFQQNAL; listed as Homo sapiens) [compound 186]	“++” (≥20% = ++)
187 (RQISIRGIVGV; listed as Homo sapiens) [compound 187]	“+++” (≥50 = +++)
188 (GLFPVTPEAV; listed as Homo sapiens) [compound 188]	“+++” (≥50 = +++)
189 (ALQRKLPYV; listed as Homo sapiens) [compound 189]	“+++” (≥50 = +++)
190 (FLSSLTETI; listed as Homo sapiens) [compound 190]	“+++” (≥50 = +++)
191 (LLQEGQALEYV; listed as Homo sapiens) [compound 191]	“++” (≥20% = ++)
192 (KMLDGASFTL; listed as Homo sapiens) [compound 192]	“+++” (≥50 = +++)
